Test results reported in patent US20220177583A1 (University of California, published 2022).

T1: human CLDN6, endogenously expressed on cancer cell lines (human, UniProt P56747 1-220)
T1 construct: also called Endogenous CLDN6+; CLDN6 on ARK2, OVCA429, UMUC4 cells
T1 sequence: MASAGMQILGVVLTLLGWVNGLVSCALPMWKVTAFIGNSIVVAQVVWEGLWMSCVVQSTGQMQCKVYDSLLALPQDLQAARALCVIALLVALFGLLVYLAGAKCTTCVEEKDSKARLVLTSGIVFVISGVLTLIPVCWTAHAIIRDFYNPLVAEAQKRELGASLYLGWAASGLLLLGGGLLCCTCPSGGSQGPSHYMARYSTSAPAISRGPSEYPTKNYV

T2: mouse CLDN6 fused to GFP, expressed on engineered HEK293T cells (mouse, UniProt Q9Z262 1-219)
T2 construct: whole, on cells; also called HEK293T-CLDN6-mGFP Artificial CLDN6+ (mouse); murine CLDN6; not shown: GFP tag
T2 sequence (looked up): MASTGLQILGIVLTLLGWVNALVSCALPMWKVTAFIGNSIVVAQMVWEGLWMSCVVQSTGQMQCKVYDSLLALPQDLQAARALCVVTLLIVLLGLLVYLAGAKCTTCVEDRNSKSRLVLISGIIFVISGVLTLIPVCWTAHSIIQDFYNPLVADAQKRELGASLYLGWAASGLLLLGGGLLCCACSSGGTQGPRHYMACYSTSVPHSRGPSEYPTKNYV


Assays:
[1] = target: T1, human CLDN6, endogenously expressed on …; experiment: FACS, ARK2 cells, 0.3 ug Ab
[2] = target: T1, human CLDN6, endogenously expressed on …; experiment: FACS, ARK2 cells, 1.5 ug Ab
[3] = target: T1, human CLDN6, endogenously expressed on …; experiment: FACS, OVCA429 cells, 1.5 ug Ab
[4] = target: T2, mouse CLDN6 fused to GFP, expressed on …; experiment: FACS, 293T clone with mouse CLDN6
[5] = target: T1, human CLDN6, endogenously expressed on …; experiment: flow cytometry on UMUC4 cells (Positive Cell Line), anti-human IgG Fc secondary antibody

Row | Binder | FACS signal [1] | FACS signal [2] | FACS signal [3] | FACS signal [4] | flow cytometry signal at 0.1µg Ab/Sample [5] | flow cytometry signal at 1µg Ab/Sample [5]
1 | AB3-7 conjugated to CL2A-SN38 (conventional) (antibody, V domains shown, CL2A-SN38 conjugated to the antibody, heterogeneous (conventional); sites not stated, Antibody-drug conjugate of humanized AB3-7; also called CLDN6 ADC) VH: EVQLLESGGGLVQPGGSMRLSCAASGFTFSNYWMNWVRQAPGKGLEWVAQIRLKSDNYATHYADSVKGRFTISRDDSKNTVYLQMNSLRAEDTGVYYCNDGPPSGSWGQGTLLTVSS VL: DIQMTQSPSSLSASVGDRVTITCRISENIYSYLAWYQQKPGKAPKLLVYNAKILVEGVPSRFSGSGSGTDFTLTISSLQPEDFGTYYCQHHYTVPWTFGQGTKLEIK |  |  |  |  | 9990 | 33800
2 | AB3-3 (antibody, V domains shown, Humanized; also called humanized AB 3-3) VH: EVQLLESGGGLVQPGGSMRLSCAASGFTFSNYWMNWVRQAPGKGLEWVAQIRLKSDNYATHYADSVKGRFTISRDDSKNTVYLQMNSLRAEDTGVYYCNDGPPSGCWGQGTLLTVSS VL: DIQMTQSPSSLSASVGDRVTITCRISENIYSYLAWYQQKPGKAPKLLVYNAKILVEGVPSRFSGSGSGTDFTLTISSLQPEDFGTYYCQHHYTVPWTFGQGTKLEIK | 1160 | 54900 | 88700 | 23000 |  | 
3 | AB3-4 (antibody, V domains shown, Humanized; full-length IgG; also called humanized AB 3-4) VH: EVQLLESGGGLVQPGGSMRLSCAASGFTFSNYWMNWVRQAPGKGLEWVAQIRLKSDNYATHYADSVKGRFTISRDDSKNTVYLQMNSLRAEDTGVYYCNDGPPSGYWGQGTLLTVSS VL: DIQMTQSPSSLSASVGDRVTITCRISENIYSYLAWYQQKPGKAPKLLIYNAKILVEGVPSRFSGSGSGTDFTLTISSLQPEDFATYYCQHHYTVPWTFGQGTKLEIK | 1320 | 1460 | 2960 | 1520 |  | 
4 | AB11-2 (antibody, V domains shown, Humanized; also called humanized AB 11-2) VH: EVQLVESGGGLVQPGGSLRLSCAASGFTFSSFGMHWVRQAPGKGLEWVAYISSDSRTIYYADSVKGRFTISRDNAKNSLYLQMNSLRAEDTAVYYCARDYGRTYEAYWGQGTLVTVSS VL: DIVMTQSPDSLAVSLGERATINCRASKSVSTSGYSYIHWYQQKPGQPPKLLIYLASNLESGVPDRFSGSGSGTDFTLTISSLQAEDVAVYYCQHSRELPLTFGQGTKLEIK | 1400 | 1940 | 2690 | 7160 |  | 
5 | AB1-6 (antibody, V domains shown, Humanized; also called humanized AB 1-6) VH: QVQLVQSGAEVKKPGASVKMSCKASGYTFTTYTMHWVRQAPGQGLEWIGFINPSSGYTDYAQKFQGRVTLTADTSTSTVYMELSSLRSEDTAVYYCANGDYYVAYWGQGTLVTVSS VL: DIQMTQSPSSLSASVGDRVTITCTASSSVSSTYFHWYQQKPGKAPKLLIYSTSNLASGVPSRFSGSGSGTDYTLTISSLQPEDFATYYCHQYHRSPLTFGQGTKLEIK | 2820 | 7740 | 29900 | 77600 |  | 
6 | AB1-8 (antibody, V domains shown, Humanized; also called humanized AB 1-8) VH: QVQLVQSGAEVKKPGASVKMSCKASGYTFTTYTMHWVRQAPGQGLEWIGFINPSSGYTDYAQKFQGRVTLTADTSTSTVYMELSSLRSEDTAVYYCANGDYYVAYWGQGTLVTVSS VL: DIQLTQSPSSLSASVGDRVTMTCTASSSVSSTYFHWYQQKPGKAPKLWIYSTSNLASGVPSRFSGSGSGTDYTLTISSMQPEDAATYYCHQYHRSPLTFGQGTKLEIK | 5810 | 17600 | 66000 | 122000 |  | 
7 | AB4-4 (antibody, V domains shown, Humanized; also called humanized AB 4-4) VH: QVQLVQSGAEVKKPGASVKMSCKASGYTFTSYTMHWIRQAPGQGLEWIGYINPSSTYTHYAQKFQGRATLTADTSTSTAYMELSSLRSEDTAVYYCSRGELGGFAYWGQGTLVTVSS VL: DVVMTQSPLSLPVTLGQPASISCRSSQSLVHSDGNTYLNWYQQRPGQSPRLLIYKVSNRFSGVPDRFSGSGSGTDFTLKISRVEAEDVGVYYCSQSTHVPYTFGQGTKLEIK | 1050 | 1400 | 1200 | 741 |  | 

Other lines, results leading:

Row | FACS signal [1] | FACS signal [2] | FACS signal [3] | FACS signal [4] | flow cytometry signal at 0.1µg Ab/Sample [5] | flow cytometry signal at 1µg Ab/Sample [5] | Binder
8 | 1120 | 1550 | 1110 | 1710 |  |  | AB9-4 (antibody, V domains shown, Humanized; also called humanized AB 9-4) VH: QVQLVQSGAEVKKPGASVKMSCKASGYRFTDYNMHWVRQAPGQGLEWIGYINPNNGGTNYAQKFQGRATLTVDTSTSTAYMELSSLRSEDTAVYYCARDYLYFFDCWGQGTLLTVSS VL: DIQMTQSPSSLSASVGDRVTITCRASQTIGTWLAWYQQKPGKAPKLLIYAAASLADGVPSRFSGSGSGTDFTFTISSLQPEDFVTYYCQQLYSIPRTFGQGTKLEIK
9 | 1320 | 1260 | 2440 | 5490 |  |  | AB11-chim (antibody, V domains shown, Parental antibody prior to humanization ('chim'); also called pre-humanized form of AB11) VH: DVQLVESGGGLVQPRGSRKLSCAASGFTFSSFGMHWVRQAPEKGLEWVAYISSDSRTIYYADTVKGRFTISRDNPTNTLFLQMTSLRSEDTAMYYCARDYGRTYEAYWGQGTLVTVSA VL: DIVLTQSPASLAVSLGQRATISCRASKSVSTSGYSYIHWYQQKPGQPPKLLIYLASNLESGVPARFSGSGSGTDFTLNIHPVEEEDAATYYCQHSRELPLTFGAGTKLELK
10 |  |  |  |  | 8910 | 28800 | AB3-7 conjugated to MC-VC-PAB-MMAE (conventional) (antibody, V domains shown, MC-VC-PAB-MMAE conjugated to the antibody, heterogeneous (conventional); sites not stated, Antibody-drug conjugate of humanized AB3-7 (WuXi Biologics); also called CLDN6 ADC; ADC-23 (conventional)) VH: EVQLLESGGGLVQPGGSMRLSCAASGFTFSNYWMNWVRQAPGKGLEWVAQIRLKSDNYATHYADSVKGRFTISRDDSKNTVYLQMNSLRAEDTGVYYCNDGPPSGSWGQGTLLTVSS VL: DIQMTQSPSSLSASVGDRVTITCRISENIYSYLAWYQQKPGKAPKLLVYNAKILVEGVPSRFSGSGSGTDFTLTISSLQPEDFGTYYCQHHYTVPWTFGQGTKLEIK
11 |  |  |  |  | 9450 | 25900 | AB3-7 conjugated to MC-VC-PAB-MMAE (D4 technology) (antibody, V domains shown, MC-VC-PAB-MMAE conjugated to the antibody, substantially 4 drugs per antibody (D4); sites not stated, Antibody-drug conjugate of humanized AB3-7; also called CLDN6 ADC; ADC-23 (D4 technology)) VH: EVQLLESGGGLVQPGGSMRLSCAASGFTFSNYWMNWVRQAPGKGLEWVAQIRLKSDNYATHYADSVKGRFTISRDDSKNTVYLQMNSLRAEDTGVYYCNDGPPSGSWGQGTLLTVSS VL: DIQMTQSPSSLSASVGDRVTITCRISENIYSYLAWYQQKPGKAPKLLVYNAKILVEGVPSRFSGSGSGTDFTLTISSLQPEDFGTYYCQHHYTVPWTFGQGTKLEIK
12 |  |  |  |  | 8790 | 31600 | AB3-7 conjugated to MC-GGFG-MMAE (D4 technology) (antibody, V domains shown, MC-GGFG-MMAE conjugated to the antibody (D4); sites not stated, Antibody-drug conjugate of humanized AB3-7; also called CLDN6 ADC) VH: EVQLLESGGGLVQPGGSMRLSCAASGFTFSNYWMNWVRQAPGKGLEWVAQIRLKSDNYATHYADSVKGRFTISRDDSKNTVYLQMNSLRAEDTGVYYCNDGPPSGSWGQGTLLTVSS VL: DIQMTQSPSSLSASVGDRVTITCRISENIYSYLAWYQQKPGKAPKLLVYNAKILVEGVPSRFSGSGSGTDFTLTISSLQPEDFGTYYCQHHYTVPWTFGQGTKLEIK
13 | 1320 | 1540 | 2200 | 5520 |  |  | AB11-3 (antibody, V domains shown, Humanized; also called humanized AB 11-3) VH: EVQLVESGGGLVQPGGSLRLSCAASGFTFSSFGMHWVRQAPGKGLEWVAYISSDSRTIYYADSVKGRFTISRDNAKNSLYLQMNSLRAEDTAVYYCARDYGRTYEAYWGQGTLVTVSS VL: DIVLTQSPDSLAVSLGERATINCRASKSVSTSGYSYIHWYQQKPGQPPKLLIYLASNLESGVPDRFSGSGSGTDFTLTISSVQAEDVAVYYCQHSRELPLTFGQGTKLELK
14 | 17100 | 29100 | 138000 | 67900 |  |  | AB3-chim (antibody, V domains shown, Parental antibody prior to humanization ('chim'); also called pre-humanized form of AB3) VH: EVKLEESGGGLVQPGGSMKLSCVASGFTFSNYWMNWVRQSPEKGLEWVAQIRLKSDNYATHYAESVKGRFTISRDDSKRSVYLQMNNLRAEDTGTYYCNDGPPSGCWGQGTTLIVSS VL: DIQMTQSPASLSASVGETVTITCRISENIYSYLAWYQQKQGKSPQLLVYNAKILVEGVPSRFSGSGSGTQFSLKINSLQPEDFGNYYCQHHYTVPWTFGGGTKLEIK
15 | 967 | 1200 | 1350 | 2000 |  |  | AB4-5 (antibody, V domains shown, Humanized; also called humanized AB 4-5) VH: QVQLVQSGAEVKKPGASVKMSCKASGYTFTSYTMHWIRQAPGQGQEWIGYINPSSTYTHYAQKFQGRATLTADTSTSTAYMELSSLRSEDTAVYYCSRGELGGFAYWGQGTLVTVSS VL: DVVMTQSPLSLPVTLGQPASISCRSSQSLVHSDGNTYLNWYQQRPGQSPRLLIYKVSNRFSGVPDRFSGSGSGTDFTLKISRVEAEDVGVYYCSQSTHVPYTFGQGTKLEIK
16 | 1190 | 1520 | 1160 | 671 |  |  | AB4-3 (antibody, V domains shown, Humanized; also called humanized AB 4-3) VH: QVQLVQSGAEVKKPGASVKVSCKASGYTFTSYTMHWVRQAPGQGLEWMGYINPSSTYTHYAQKFQGRVTMTADTSTSTVYMELSSLRSEDTAVYYCSRGELGGFAYWGQGTLVTVSS VL: DVVMTQSPLSLPVTLGQPASISCRSSQSLVHSDGNTYLNWYQQRPGQSPRLLIYKVSNRFSGVPDRFSGSGSGTDFTLKISRVEAEDVGVYYCSQSTHVPYTFGQGTKLEIK
